Source: patent publication US7514534

T1: MMP-26 (human)
T1 sequence: ASDF


target: T1, MMP-26 (human); experiment: cell-based or functional assay

Binder | % Inhibition of JEG-3 cell invasion, 5 µg/ml (first test) | % Inhibition of JEG-3 cell invasion, 25 µg/ml (first test) | % Inhibition of JEG-3 cell invasion, 1 µg/ml (further test) | % Inhibition of JEG-3 cell invasion, 5 µg/ml (further test) | % Inhibition of JEG-3 cell invasion, 25 µg/ml (further test) | % Inhibition of JEG-3 cell invasion, 50 µg/ml (further test)
C05 (antibody, human IgG4, V domains shown) VH: EVQLLESGGGLVQPGGSLRLSCAASGFTFSSYQMDWVRQAPGKGLEWVSRIVPSGGDTTYADSVKGRFTISRDNSKNTLYLQMNSLRAEDTAVYYCARHVYYDSSDYFPNPFDYWGQGTLVTVSS VL: QSELTQPPSVSGTPGQRVTISCSGSSSNIGSEYVYWFQQLPGTAPRLLIYRNDQRPSGVPDRFSGSKSGTSASLAISGLRSEDETDYYCTTWDDSLSGPVFGGGTKLTVLG | 16% | 32% | – | – | – | –
D04 (antibody, human IgG4, V domains shown) VH: EVQLLESGGGLVQPGGSLRLSCAASGFTFSDYQMMWVRQAPGKGLEWVSRISPSGGMTRYADSVKGRFTISRDNSKNTLYLPMNSLRAEDTAVYYCARSGPYYFDYWGQGTLVTVSS VL: DIQMTQSPSSLSASVGDRVAITCRASQSIDTYLNWYQQKPGKAPKLLIYAASKLEDGVPSRFSGSGTGTDFTLTIRSLQPEDFASYFCQQSYSSPGITFGPGTKVEIKR | 38% | 34% | 47% | 34% | 45% | 52%
B06 (antibody, human IgG4, V domains shown) VH: EVQLLESGGGLVQPGGSLRLSCAASGFTFSQYFMKWVRQAPGKGLEWVSSISPSGGLTQYADSVKGRFTISRDNSKNTLYLQMNSLRAEDTAVYYCARGGIEAPGSPSDYWGQGTLVTVSS VL: DIQMTQSPSFLSASVGDRVTITCRASQGISSYLAWYQQKPGKAPKLLIYAASTLQSGVPSRFSGSGSGTDFTLTISSLEPEDFATYYCQESYSTPFFTFGPGTKVDIRR | 34% | 30% | – | – | – | –
D02 (antibody, human IgG4, V domains shown) VH: EVQLLESGGGLVQPGGSLRLSCAASGFTFSWYDMAWVRQAPGKGLEWVSRIVPSGGHTSYADSVKGRFTISRDNFKNTLYLQMNSLRAEDTAVYYCARRASRPEFFDYWGQGALVTVSS VL: DIQMTQSPSFLSASVGDRVTITCRASQGISTYLAWYQQKPGKAPKVLIYTASTLQSGVPSRFSGSGSGTEFTLTISSLQPEDFATYYCQQSYITPPEVTFGPGTKVDIKR | 36% | 25% | – | – | – | –
B04 (antibody, human IgG4, V domains shown) VH: EVQLLESGGGLVQPGGSLRLSCAASGFTFSFYWMMWVRQAPGKGLEWVSGISSSGGFTKYADSVKGRFTISRDNSKNTLYLQMNSLRAEDTAVYYCARETSRRAFDIWGQGTMVTVSS VL: DIQMTQSPSSVSASVGDRVTITCRASQGISKSLAWYQQKPGKAPKLLVYGAFSLESGVPSRFSGTGAGTDFILTISRLQPEDFATYYCQQANSFPLTFGGGTKVEIKR | 36% | 14% | – | – | – | –
C04 (antibody, human IgG4, V domains shown) VH: EVQLLESGGGLVQPGGSLRLSCAASGFTFSMYFMVWVRQAPGKGLEWVSWIGSSGGETPYADSVKGRFTISRDNSKNTLYLQMNSLRAEDTAVYYCARGYSSGWYVMGDYWGQGTLVTVSS VL: QSALTQPPSASGTPGQRVTISCSGTSSNIGSHYVFWYQQLPGTAPKLLIHRNDERPSGVPDRFSGSKSGTSASLAISGLQSEDEADYYCATWDDNLNGPVFGGGTKLT | 35% | 36% | 1% | 11% | 18% | 32%
D06 (antibody, human IgG4, V domains shown) VH: EVQLLESGGGLVQPGGSLRLSCAASGFTFSGYIMEWVRQAPGKGLEWVSVIVSSGGFTMYADSVKGRFTISRDNSKNTLYLQMNSLRAEDTAVYYCARVGDSKGGYYLDYWGQGTLVTVSS VL: DIQMTQSPSSLSASVGDRVTITCRTSQIINTYLNWYQQKPGKAPKLLIYAASTLQGGVPSRFSGSGSGTDFTLTIKSLQPDDFATYYCQQSYTSPRTFGQGTKVEIKR | 0% | 35% | – | – | – | –
D07 (antibody, human IgG4, V domains shown) VH: EVQLLESGGGLVQPGGSLRLSCAASGFTFSEYNMFWVRQAPGKGLEWVSYIYSSGGSTDYADSVKGRFTISRDNSKNTLYLQMNSLRAEDTAVYYCARVGIAARPFDPWGQGTLVTVSS VL: QSELTQPASVSGSPGQSITISCTGTNSDIGGYNYVSWYQQHPGKVPKLLIFEVNNRPSGVSSRFSGSKSGDTASLTISGLQPEDEAVYYCGSFTVSVTYVFGTGTKVTVLG | 21% | 36% | – | – | – | –
C01 (antibody, human IgG4, V domains shown) VH: EVQLLESGGGLVQPGGSLRLSCAASGFTFSNYGMSWVRQAPGKGLEWVSVIGPSGGITMYADSVKGRFTISRDNSKNTLYLQMNSLRAEDTAVYYCATGSSSGWYPNFDYWGQGTLVTVSS VL: DIQMTQSPSTLSASVGDRVTITCRASQSIGNWLAWYQQKPGEAPHLLIYQASSLEGGVPSRFSGSGSGTKFTLNISSLQPDDFATYYCQQYNSYSYTFGQGTKLDIKR | 43% | 34% | -2% | 16% | 21% | 42%

Results, then the binder that gave them:

% Inhibition of JEG-3 cell invasion, 5 µg/ml (first test) | % Inhibition of JEG-3 cell invasion, 25 µg/ml (first test) | % Inhibition of JEG-3 cell invasion, 1 µg/ml (further test) | % Inhibition of JEG-3 cell invasion, 5 µg/ml (further test) | % Inhibition of JEG-3 cell invasion, 25 µg/ml (further test) | % Inhibition of JEG-3 cell invasion, 50 µg/ml (further test) | Binder
36% | 35% | 56% | 50% | 76% | 53% | D08 (antibody, human IgG4, V domains shown) VH: EVQLLESGGGLVQPGGSLRLSCAASGFTFSFYAMWWVRQAPGKGLEWVSRIYSSGGKTWYADSVKGRFTISRDNSKNTLYLQMNSLRAEDTAVYYCARVGMSTYAFDIWGQGTMVTVSS VL: DIQMTQSPSSLSASVGDRVTITCRASQSISDYLNWYQQKPGKAPDLLIYAASSLQSGVPSRFSGSGSGTDFTLTVSSLQPEDFATYFCQQSYSIPLTFGGGTKVEITR
49% | 38% | 36% | 35% | 49% | 27% | C12 (antibody, V domains shown) VH: EVQLLESGGGLVQPGGSLRLSCAASGFTFSAYNMMWVRQAPGKGLEWVSRIYPSGGYTLYADSVKGRFTISRDNSKNTLYLQMNSLRAEDTAVYYCARQKLMIRAVRPFDYWGQGTLVTVSS VL: QSELTQPPSVSVSPAQTASITCSGDKLGDKYACWYQQKPGQSPVLVIYEDTKRPSGIPERFSGSNSGNTATLTISGTQVMDEADYYCQVWDSSTAVFGGGTKLTVLG
45% | 49% | 34% | 42% | 49% | 62% | C08 (antibody, human IgG4, V domains shown) VH: EVQLLESGGGLVQPGGSLRLSCAASGFTFSYYEMMWVRQAPGKGLEWVSSISPSGGPTMYADSVKGRFTISRDNSKNTLYLQMNSLRAEDTGVYYCARKMGRVGYCSSTSCYRDDYYGMDVWGQGTTVTVSS VL: DIQMTQSPPSLSALVGDRVTITCRASQSISRYVNWYQQKPGKAPKVLIYAASIVENGVPSRFSGSGSGTDFSLTISSLQPEDFATYYCQQTYSTPLTFGGGTKLAIKR
48% | 26% | 6% | 5% | 11% | 22% | B10 (antibody, human IgG4, V domains shown) VH: EVQLLESGGGLVQPGGSLRLSCAASGFTFSSYAMMWVRQAPGKGLEWVSWIVPSGGTTFYADSVKGRFTISRDNSKNTLYLQMNSLRAEDTAVYYCARGLYRWGQGTLVTVSSASTKGPSVFP VL: DIQMTQSPSSLSASVGDRVTIACRTSQNVNRYLNWYQHKLGQAPKLLIYGATILQSGVPSRFRGSGSGTDFILTITNLQPEDFAVYYCQQTYSPPLTFGQGTKAEFKGTVAAPSV
28% | 56% | 51% | 54% | 59% | 73% | A11 (antibody, human IgG4, V domains shown) VH: EVQLLESGGGLVQPGGSLRLSCAASGFTFSWYTMMWVRQAPGKGLEWVSRISPSGGHTLYADSVKGRFTISRDNSZNTLYLQMNSLRAEDTAVYYCARDTWDDYYDSSGYYNDFDYWGQGTLVTVSS VL: QSALTQPPSVSLAPGQTARITCGGNNIGTKSVHWYQQKPGQAPVLVVYDDSDRPSGIPERFSGSNSGNTATLTISRVEAGDEADYYCQVWDSGSDHQVFGGGTKLTVLG
28% | 29% | – | – | – | – | C11 (antibody, human IgG4, V domains shown) VH: EVQLLESGGGLVQPGGSLRLSCAASGFTFSEYPMWWVRQAPGKGLEWVSWIYPSGGNTDYADSVKGRFTISRDNSKNTLYLQMNSLRAEDTAVYYCAIPYCSSSSCPLHWGQGTLVTVSS VL: QSELTQPPSASGSPGQSVTISCTGTSSDVGGYNYVSWYQQHPDKAPKLLIYEVTQRPSGVPDRFSGSRSGNTASLTVSGLQAEDEADYYCSSYAGRNNLYVFGPGTKVTVLG
